The nature of data set [1]: Resistance to elevated temperature, HPLC. It is filed as physicochemical. The conditions noted are these: HPLC peak vs untreated peptide; for Resistance to Temperature (75° C.): 75° C. for one hour; for Resistance to Temperature (100° C.): 100° C. for one hour. How it is done:
(§1) Peptides were first suspended in 500 μl of ddH2O to a stock concentration of 2 mg/ml. Reactions were prepared by adding 12.5 μg of peptide from the stock solution to a 10 mM solution of DTT in PBS and allowed to incubate at room temperature for 30 minutes. Other reactions were prepared with 12.5 μg peptide and 500 U/ml trypsin in 25 mM Tris/75 mM NaCl buffer (pH 7.0) and incubated for 30 minutes at 37.5° C. These reactions were then quenched with 5 μg of soybean trypsin inhibitor (I) and, in some cases, 10 mM dithiothreitol (DTT). Reversed phase HPLC (RP-HPLC) was run on samples using an Agilent 1260 HPLC equipped with a C-18 Poroshell 120B column. Sample were analyzed by a gradient method with a mobile phase of Solvent A (water with 0.1% TFA) and Solvent B (acetonitrile with 0.1% TFA). Solvent B was ramped up from 5%-45% of the mobile phase over a period of 10 minutes. For testing pepsin digestion resistance, reactions were prepared with 12.5 μg peptide with or without 500 U/ml pepsin in simulated gastric fluid (SGF; pH 1.05; […] sodium chloride in 0.7% (v/v) hydrochloric acid) and were incubated for 30 minutes at 37.5° C. For testing temperature resistance, peptides were incubated at 70° C., 75° C., or 100° C. for one hour in 0.5 mM PBS, pelleted, and then the supernatant was analyzed by HPLC.
This example illustrates peptide stability at high temperatures. Peptides were first suspended in 500 μl of ddH2O to a stock concentration of 2 mg/ml. Reactions were prepared by adding 6.25 μl of peptide from the stock solution with 95 μl ddH2O and incubated at room temperature, 70° C., or 100° C. for one hour in a Thermocycler. RP-HPLC was then run on samples using an Agilent 1260 HPLC equipped with a C-18 Poroshell 120B column. Sample were analyzed by a gradient method with a mobile phase of Solvent A (water with 0.1% TFA) and Solvent B (acetonitrile with 0.1% TFA). Solvent B was ramped up from 5%-45% of the mobile phase over a period of 10 minutes.

Data set [2] is described as follows: Resistance to reduction by DTT, RP-HPLC. It is filed as physicochemical. As to conditions: 10 mM DTT in PBS, room temperature, 30 minutes; HPLC peak vs untreated peptide. The method, then:
Peptides were first suspended in 500 ul of ddH2O to a stock concentration of 2 mg/ml. Reactions were prepared by adding 12.5 ug of peptide from the stock solution to a 10 mM solution of DTT in PBS and allowed to incubate at room temperature for 30 minutes. Other reactions were prepared with 12.5 μg peptide with or without 500 U/ml pepsin in simulated gastric fluid (SGF; pH 1.05; […] sodium chloride in 0.7% (v/v) hydrochloric acid) and were incubated for 30 minutes at 37.5° C. Some reactions were quenched with a final concentration of 100 mM Tris base and 10 mM dithiothreitol (DTT). Some reactions were performed in all of the above components, including simulated gastric fluid, pepsin, Tris, and DTT (referred to as SPTD). Reversed phase HPLC (RP-HPLC) was run on samples using an Agilent 1260 HPLC equipped with a C-18 Poroshell 120B column. Sample were analyzed by a gradient method with a mobile phase of Solvent A (water with 0.1% TFA) and Solvent B (acetonitrile with 0.1% TFA). Solvent B was ramped up from 5%-45% of the mobile phase over a period of 10 minutes. Peptides were detected at an absorbance of 214 nm and 280 nm.
as §1
This example illustrates peptide stability in biological conditions including in the presence of reducing agents, proteases, oxidative conditions, acidic conditions, and simulated gastric fluids. […] Various peptides were suspended in 500 μl of ddH2O at a stock concentration of 2 mg/ml. This was then diluted in accord with the reaction conditions to prevent adverse buffering effects. Reactions were prepared with 12.5 μg peptide dissolved in solution and, in some samples, additionally suspended in a 10 mM solution of DTT, simulated gastric fluid (pH 1.05; […] sodium chloride in 0.7% (v/v) hydrochloric acid), 500 U pepsin (5000 U/ml pepsin), 50 U trypsin (500 U/ml trypsin) with 1 mg/ml inhibitor in PBS, or a combination of any of these conditions. All protease reactions were incubated for 30 min at room temperature and then quenched. Pepsin reactions were quenched by adding Tris base to a final concentration of 0.075 M. Trypsin reactions were quenched by adding excess soybean trypsin inhibitor. RP-HPLC was then run on samples using an Agilent 1260 HPLC equipped with a C-18 Poroshell 120B column. Sample were analyzed by a gradient method with a mobile phase of Solvent A (water with 0.1% TFA) and Solvent B (acetonitrile with 0.1% TFA). Solvent B was ramped up from 5%-45% of the mobile phase over a period of 10 minutes.
FIG. 18 illustrates high performance liquid chromatograph (HPLC) traces of peptides in non-reducing (NR) conditions (solid trace) or in 10 mM DTT reducing (R) conditions (dashed trace). […]

In data set [3] the target is trypsin (Sus scrofa, UniProt P00761). Put plainly: Trypsin digestion resistance of soluble peptide, RP-HPLC. Format: in vitro ADME, porcine. Set-up: purchased Sigma Aldrich 6567. As to conditions: 500 U/ml trypsin, 30 minutes at 37.5° C.; HPLC peak vs untreated peptide. An outline of the steps: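 12.5 μg soluble peptide digested with 500 U/ml porcine trypsin in PBS, 30 min at 37.5° C; quenched with soybean trypsin inhibitor, with or without 10 mM DTT reduction afterwards. Intact peptide assessed by C-18 RP-HPLC, 5-45% acetonitrile/0.1% TFA gradient over 10 min.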

The target of data set [4] is pepsin (Sus scrofa, UniProt P00791). Put plainly: Pepsin digestion resistance in simulated gastric fluid, RP-HPLC. Format: in vitro ADME, porcine. Set-up: purchased Sigma Aldrich P7012. The conditions noted are these: 500 U/ml pepsin in SGF pH 1.05, 30 minutes at 37.5° C.; HPLC peak vs untreated peptide. An outline of the steps:
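Peptide (12.5 μg) incubated 30 min at 37.5 °C with or without 500 U/ml pepsin in simulated gastric fluid (pH 1.05; 2% NaCl in 0.7% HCl); some reactions quenched with 100 mM Tris and 10 mM DTT. Intact peptide followed by C-18 RP-HPLC (5–45% acetonitrile/0.1% TFA over 10 min) at 214 and 280 nm.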

Chain of trypsin (P00761 9-231): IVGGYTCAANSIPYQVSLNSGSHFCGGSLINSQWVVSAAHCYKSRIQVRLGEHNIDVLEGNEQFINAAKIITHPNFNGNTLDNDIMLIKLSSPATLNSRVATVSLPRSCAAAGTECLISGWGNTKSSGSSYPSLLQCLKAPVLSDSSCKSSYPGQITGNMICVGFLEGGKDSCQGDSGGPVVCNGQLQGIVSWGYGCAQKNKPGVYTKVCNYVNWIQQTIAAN
Chain of pepsin (P00791 60-385): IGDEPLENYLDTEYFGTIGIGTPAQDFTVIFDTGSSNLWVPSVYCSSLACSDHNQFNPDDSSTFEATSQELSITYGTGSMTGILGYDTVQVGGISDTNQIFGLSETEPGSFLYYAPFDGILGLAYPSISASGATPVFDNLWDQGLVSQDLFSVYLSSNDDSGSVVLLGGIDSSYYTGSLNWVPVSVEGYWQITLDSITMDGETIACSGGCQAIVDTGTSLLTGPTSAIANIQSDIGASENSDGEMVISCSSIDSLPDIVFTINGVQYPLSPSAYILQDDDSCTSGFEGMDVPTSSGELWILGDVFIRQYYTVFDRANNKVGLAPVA

As for “11 (GSNCAGYMRECKEKLCCSGYVCSSRWKWCVLPAPWRR) [compound 11]”, in data set [1], the “Resistance to Temperature (75° C.)” value is recorded as “High (A peptide classified as high indicates that the majority (at least 75%) of the HPLC peak of the treated peptide is still present as compared to the HPLC peak of the untreated peptide)” and the “Resistance to Temperature (100° C.)” value is “Low (A peptide classified as low indicates that the majority (over 75%) of the HPLC peak of the treated peptide disappeared as compared to the HPLC peak of the untreated peptide)”. Besides, the “Resistance to DTT Reduction (10 mM)” value in data set [2] was “Low (A peptide classified as low indicates that the majority (over 75%) of the HPLC peak of the treated peptide disappeared as compared to the HPLC peak of the untreated peptide)”. Also, the “Resistance to Trypsin (500 U/ml)” value in data set [3] is listed as “High (A peptide classified as high indicates that the majority (at least 75%) of the HPLC peak of the treated peptide is still present as compared to the HPLC peak of the untreated peptide)”. The “Resistance to Pepsin (500 U/ml)” value in data set [4] is given as “High (A peptide classified as high indicates that the majority (at least 75%) of the HPLC peak of the treated peptide is still present as compared to the HPLC peak of the untreated peptide)”.

“13 (GSAEIIRCSGTRECYAPCQKLTGCLNAKCMNKACKCYGCV) [compound 13]”: in data set [1], the “Resistance to Temperature (75° C.)” value was “High (A peptide classified as high indicates that the majority (at least 75%) of the HPLC peak of the treated peptide is still present as compared to the HPLC peak of the untreated peptide)” and the “Resistance to Temperature (100° C.)” value is given as “High (A peptide classified as high indicates that the majority (at least 75%) of the HPLC peak of the treated peptide is still present as compared to the HPLC peak of the untreated peptide)”. The “Resistance to DTT Reduction (10 mM)” value in data set [2] is on record as “Low (A peptide classified as low indicates that the majority (over 75%) of the HPLC peak of the treated peptide disappeared as compared to the HPLC peak of the untreated peptide)”. Also, the “Resistance to Trypsin (500 U/ml)” value in data set [3] is reported as “Low (A peptide classified as low indicates that the majority (over 75%) of the HPLC peak of the treated peptide disappeared as compared to the HPLC peak of the untreated peptide)”. The “Resistance to Pepsin (500 U/ml)” value in data set [4] was “High (A peptide classified as high indicates that the majority (at least 75%) of the HPLC peak of the treated peptide is still present as compared to the HPLC peak of the untreated peptide)”.

With “14 (GSSDYCSNDFCFFSCRRDRCARGDCENGKCVCKNCHLN) [compound 14]”, in data set [1], the “Resistance to Temperature (75° C.)” value is listed as “High (A peptide classified as high indicates that the majority (at least 75%) of the HPLC peak of the treated peptide is still present as compared to the HPLC peak of the untreated peptide)” and the “Resistance to Temperature (100° C.)” value is listed as “High (A peptide classified as high indicates that the majority (at least 75%) of the HPLC peak of the treated peptide is still present as compared to the HPLC peak of the untreated peptide)”. In data set [2], the “Resistance to DTT Reduction (10 mM)” value was “Low (A peptide classified as low indicates that the majority (over 75%) of the HPLC peak of the treated peptide disappeared as compared to the HPLC peak of the untreated peptide)”. Further, the “Resistance to Trypsin (500 U/ml)” value in data set [3] was “Low (A peptide classified as low indicates that the majority (over 75%) of the HPLC peak of the treated peptide disappeared as compared to the HPLC peak of the untreated peptide)”. Moreover, in data set [4], the “Resistance to Pepsin (500 U/ml)” value was “Moderate (A peptide classified as medium indicates that about half (between 25% and 75%) of the HPLC peak of the treated peptide disappeared as compared to the HPLC peak of the untreated peptide)”.

“15 (GSCIGEGVPCDENDPRCCFGLVCLKPTLHGIWYKSYYCYKK) [compound 15]”: in data set [1], the “Resistance to Temperature (75° C.)” value is “High (A peptide classified as high indicates that the majority (at least 75%) of the HPLC peak of the treated peptide is still present as compared to the HPLC peak of the untreated peptide)” and the “Resistance to Temperature (100° C.)” value is listed as “Low (A peptide classified as low indicates that the majority (over 75%) of the HPLC peak of the treated peptide disappeared as compared to the HPLC peak of the untreated peptide)”. Moreover, in data set [2], the “Resistance to DTT Reduction (10 mM)” value is recorded as “Low (A peptide classified as low indicates that the majority (over 75%) of the HPLC peak of the treated peptide disappeared as compared to the HPLC peak of the untreated peptide)”. Besides, in data set [3], the “Resistance to Trypsin (500 U/ml)” value was “Low (A peptide classified as low indicates that the majority (over 75%) of the HPLC peak of the treated peptide disappeared as compared to the HPLC peak of the untreated peptide)”. Moreover, the “Resistance to Pepsin (500 U/ml)” value in data set [4] is listed as “High (A peptide classified as high indicates that the majority (at least 75%) of the HPLC peak of the treated peptide is still present as compared to the HPLC peak of the untreated peptide)”.

Regarding “16 (GSSCAKPGEMCMRIKCCDGQCGCNRGTGRCFCK) [compound 16]”, in data set [1], the “Resistance to Temperature (75° C.)” value is “High (A peptide classified as high indicates that the majority (at least 75%) of the HPLC peak of the treated peptide is still present as compared to the HPLC peak of the untreated peptide)” and the “Resistance to Temperature (100° C.)” value is recorded as “Low (A peptide classified as low indicates that the majority (over 75%) of the HPLC peak of the treated peptide disappeared as compared to the HPLC peak of the untreated peptide)”. Moreover, the “Resistance to DTT Reduction (10 mM)” value in data set [2] is on record as “Low (A peptide classified as low indicates that the majority (over 75%) of the HPLC peak of the treated peptide disappeared as compared to the HPLC peak of the untreated peptide)”. In data set [3], the “Resistance to Trypsin (500 U/ml)” value is listed as “Low (A peptide classified as low indicates that the majority (over 75%) of the HPLC peak of the treated peptide disappeared as compared to the HPLC peak of the untreated peptide)”. The “Resistance to Pepsin (500 U/ml)” value in data set [4] was “High (A peptide classified as high indicates that the majority (at least 75%) of the HPLC peak of the treated peptide is still present as compared to the HPLC peak of the untreated peptide)”.

The values above are taken from patent publication US20190375786A1, “STABLE PEPTIDES AND METHODS OF USE THEREOF” (Fred Hutchinson Cancer Research Center, priority 2016, published 2019).
